In the supplement of paper PMC7877785:
± gives the uncertainty stated by the source.

Test: self-splicing fitness, log relative to wild type (ln ratio); higher = more splicing; Tetrahymena group I intron in knt gene, E. coli kanamycin selection, DiMSum; sequences stand for … in CUCUCU…GGAGGGAAAAGUUAUCAGGCAUGCACCUGGUAGCUAGUCUUUAAACCAAUAGAUUGCAUCGGUUUAAAAGGCAAGACCGUCAAAUUGCGGGAAAGGGGUCAACAGCCGUUCAGUACCAAGUCUCAGGGGAAACUUUGAGAUGGCCUUGCAAAGGGUAUGGUAAUAAGCUGACGGACAUGGUCCUAACCACGCAGCCAAGUCCUAAGUCAACAGAUCUUCUGUUGAUAUGGAUGCAGUUCACAGACUAAAUGUCGGUCGGGGAAGAUGUAUUCUUCUCAUAAGAUAUAGUCGGACCUCUCCUUAAUGGGAGCUAGCGGAUGAAGUGAUGCAACACUGGAGCCGCUGGGAACUAAUUUGUAUGCGAAAGUAUAUUGAUUAGUUUUGGAGUACUCGUGGUCG
How it was run: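 Library with all eight P1ex-region intron nucleotides randomised, intron inside the knt kanamycin-resistance gene on pET-22b(+), in E. coli BL21(DE3). Cells grew overnight at 37°C or 30°C on LB agar with or without 25 μg/mL kanamycin (plus 100 μg/mL carbenicillin, 50 μM IPTG, 0.2% rhamnose), in six replicate transformations. Pooled colonies were amplicon-sequenced on Illumina HiSeq 2500. DiMSum fitness is the error-weighted combination of wild-type-normalised replicate fold changes, kanamycin versus none.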

Sequence	self-splicing fitness (ln) (30 °C)	self-splicing fitness (ln) (37 °C)
GUACAGCAAUAUUACGGAUG	-2.79 ± 0.2	-1.8 ± 0.17
GUACAGCAAUAUUACGGCGG	-2.78 ± 0.19	-2.66 ± 0.22
GUACAGCAAUAUUACGGGCA	-1.9 ± 0.093	-0.873 ± 0.088
GUACAGCAAUAUUACGUAAA	-2.87 ± 0.14	-1.44 ± 0.16
GUACAGCAAUAUUACGUCUC	-0.298 ± 0.11	-0.182 ± 0.12
GUACAGCAAUAUUACGUGGC	-3.61 ± 0.17	-1.75 ± 0.13
GUACAGCAAUAUUACGUGUA	-3.18 ± 0.16	-2.32 ± 0.14
GUACAGCAAUAUUACGUUCC	-3.44 ± 0.15	-3.48 ± 0.42
GUAGAGCAAUAUUACGAAGU	-2.46 ± 0.23	-0.951 ± 0.17
GUAGAGCAAUAUUACGACUU	-0.172 ± 0.081	0.104 ± 0.1
GUAGAGCAAUAUUACGAUAA	-1.5 ± 0.15	0.242 ± 0.19
GUAGAGCAAUAUUACGAUCC	-1.22 ± 0.21	-0.765 ± 0.28
GUAGAGCAAUAUUACGCAUC	-1.49 ± 0.13	-1.37 ± 0.15
GUAGAGCAAUAUUACGCCGG	-1.41 ± 0.21	-0.336 ± 0.47
GUAGAGCAAUAUUACGCCUC	-0.746 ± 0.27	-0.67 ± 0.37
GUAGAGCAAUAUUACGCUAA	-0.515 ± 0.07	-0.264 ± 0.089
GUAGAGCAAUAUUACGGAUG	-3.96 ± 0.43	-2.08 ± 0.36
GUAGAGCAAUAUUACGGGCG	-1.68 ± 0.12	-1.19 ± 0.15
GUAGAGCAAUAUUACGGUUU	-1.75 ± 0.11	-0.8 ± 0.13
GUAGAGCAAUAUUACGUCAG	-3.1 ± 0.3	-2.07 ± 0.23
GUAGAGCAAUAUUACGUGAG	-2.33 ± 0.15	-0.687 ± 0.16
GUAGAGCAAUAUUACGUGCC	–	-2.12 ± 0.28
GUAGAGCAAUAUUACGUGUG	-0.928 ± 0.073	-1.6 ± 0.12
GUAGAGCAAUAUUACGUUAA	-2 ± 0.17	-0.228 ± 0.21
GUAUAGCAAUAUUACGACCU	-1.21 ± 0.18	-0.345 ± 0.18
GUAUAGCAAUAUUACGACGA	-1.78 ± 0.24	-0.483 ± 0.19

Sequence	self-splicing fitness (ln) (30 °C)	self-splicing fitness (ln) (37 °C)
GUAUAGCAAUAUUACGAGUC	-3.65 ± 0.38	-0.711 ± 0.19
GUAUAGCAAUAUUACGAUCA	-1.33 ± 0.2	-0.768 ± 0.16
GUAUAGCAAUAUUACGAUGC	-2.65 ± 0.2	-2.55 ± 0.24
GUAUAGCAAUAUUACGCAAU	-1.98 ± 0.22	-2.85 ± 0.4
GUAUAGCAAUAUUACGCCAU	-2.96 ± 0.32	-1.6 ± 0.22
GUAUAGCAAUAUUACGCCGU	-2.69 ± 0.23	-0.947 ± 0.19
GUAUAGCAAUAUUACGCUCG	-0.631 ± 0.15	-0.0296 ± 0.19
GUAUAGCAAUAUUACGCUUA	-2.39 ± 0.17	-1.23 ± 0.2
GUAUAGCAAUAUUACGGAUG	-2.65 ± 0.39	-1.99 ± 0.25
GUAUAGCAAUAUUACGGAUU	-2.58 ± 0.14	-0.56 ± 0.13
GUAUAGCAAUAUUACGGCGG	–	-2.1 ± 0.38
GUAUAGCAAUAUUACGGGGC	–	-1.61 ± 0.37
GUAUAGCAAUAUUACGGUCU	-1.47 ± 0.11	-0.548 ± 0.16
GUAUAGCAAUAUUACGUAUA	-3.48 ± 0.41	-1.8 ± 0.25
GUAUAGCAAUAUUACGUCCU	-1.56 ± 0.15	-0.00945 ± 0.19
GUAUAGCAAUAUUACGUGAC	-2.65 ± 0.13	-1.65 ± 0.14
GUAUAGCAAUAUUACGUGCG	-1.4 ± 0.12	-0.66 ± 0.15
GUCAAGCAAUAUUACGAGAC	-3.46 ± 0.19	-3.84 ± 0.26
GUCAAGCAAUAUUACGAUUU	-0.962 ± 0.08	-1.42 ± 0.11
GUCAAGCAAUAUUACGCAAA	-1.99 ± 0.15	-1.46 ± 0.16
GUCAAGCAAUAUUACGCACG	-1.96 ± 0.13	-1.49 ± 0.19
GUCAAGCAAUAUUACGCAUG	-4.62 ± 0.34	-2.33 ± 0.17
GUCAAGCAAUAUUACGCGCC	-4.2 ± 0.3	-1.95 ± 0.23
GUCAAGCAAUAUUACGCUCC	-1.87 ± 0.28	-1.62 ± 0.29
GUCAAGCAAUAUUACGGAAU	-2.07 ± 0.12	-1.09 ± 0.12
GUCAAGCAAUAUUACGGACA	-3.06 ± 0.39	-2.09 ± 0.19

Sequence	self-splicing fitness (ln) (30 °C)	self-splicing fitness (ln) (37 °C)
GUCAAGCAAUAUUACGGCAU	-1.55 ± 0.083	-0.119 ± 0.1
GUCAAGCAAUAUUACGGUUA	-2.2 ± 0.14	-0.972 ± 0.1
GUCAAGCAAUAUUACGUAGU	-1.21 ± 0.068	-0.468 ± 0.1
GUCAAGCAAUAUUACGUAUA	-2.31 ± 0.13	-0.798 ± 0.14
GUCAAGCAAUAUUACGUCAU	-2.22 ± 0.075	-1.16 ± 0.064
GUCAAGCAAUAUUACGUGAC	-5.1 ± 0.39	-4.13 ± 0.32
GUCAAGCAAUAUUACGUGAG	-1.2 ± 0.054	-0.505 ± 0.067
GUCAAGCAAUAUUACGUUAA	-2.02 ± 0.12	-1.74 ± 0.1
GUCAAGCAAUAUUACGUUAU	-2.02 ± 0.088	-1.15 ± 0.09
GUCCAGCAAUAUUACGAAGA	-0.611 ± 0.19	-1.51 ± 0.24
GUCCAGCAAUAUUACGAUCG	-1.8 ± 0.14	-1.54 ± 0.14
GUCCAGCAAUAUUACGAUCU	-2.44 ± 0.16	-0.0861 ± 0.12
GUCCAGCAAUAUUACGCAGG	-4.01 ± 0.18	-3.72 ± 0.24
GUCCAGCAAUAUUACGCCAG	-3.38 ± 0.23	-1.15 ± 0.2
GUCCAGCAAUAUUACGCCGU	-1.29 ± 0.13	-0.122 ± 0.13
GUCCAGCAAUAUUACGCGGG	-4.23 ± 0.26	-2.92 ± 0.24
GUCCAGCAAUAUUACGCGUC	-1.15 ± 0.088	0.346 ± 0.12
GUCCAGCAAUAUUACGCUAA	-0.5 ± 0.11	0.303 ± 0.11
GUCCAGCAAUAUUACGCUCA	-0.307 ± 0.092	-0.112 ± 0.11
GUCCAGCAAUAUUACGCUGA	-0.534 ± 0.092	-0.466 ± 0.13
GUCCAGCAAUAUUACGGAUG	-0.272 ± 0.077	0.023 ± 0.1
GUCCAGCAAUAUUACGGCAA	-0.33 ± 0.097	-0.363 ± 0.085
GUCCAGCAAUAUUACGGCUC	-0.432 ± 0.077	0.909 ± 0.12
GUCCAGCAAUAUUACGGGAA	-0.0663 ± 0.071	-0.474 ± 0.077
GUCCAGCAAUAUUACGGGAU	-4.04 ± 0.2	-2.76 ± 0.22
